Legend:
[1] = test system: Human Embryonic Stem Cells (H1 hESC line); test: FACS analysis of CXCR4 at conclusion of first step of step-wise differentiation (Example 12); assay type: cell-based; conditions: 100 ng/ml peptide, end of first step (three days), FIG. 23A, 23B
Description: Preparation of Cells for Assay: Stock Cultures of Human Embryonic Stem Cells (H1 hESC line) were maintained in an undifferentiated, pluripotent state on growth factor-reduced MATRIGEL™-coated dishes in MEF conditioned medium supplemented with bFGF (PeproTech; Cat #100-18B) with passage on average every, four days. Passage was performed by exposing cell cultures to a solution of 1 mg/ml collagenase (Invitrogen, Cat #17104-019) for five to seven minutes at 37° C. followed by rinsing the monolayer with MEF conditioned medium and gentle scraping to recover cell clusters. Clusters were centrifuged at low speed to collect a cell pellet and remove residual collagenase. Cell clusters were split at a 1:3 or 1:4 ratio for routine maintenance culture or a 1:1 ratio for immediate assay. All human ES cell lines were maintained at passage numbers less than 50 and routinely evaluated for normal karyotypic phenotype and for absence of mycoplasma contamination.
Cell clusters were evenly resuspended in MEF conditioned medium supplemented with 8 ng/ml bFGF and seeded onto growth factor-reduced MATRIGEL™-coated 24-well, black wall culture plates (Arctic White; Cat #AWLS-303012) in volumes of 0.5 ml/well. Daily feeding was conducted by aspirating spent culture medium from each well and replacing with an equal volume of fresh medium. Plates were maintained at 37° C., 5% CO2 throughout the duration of assay.
Assay: The assay was initiated by aspirating culture medium from each well and adding back an aliquot (0.5 ml) of test medium. Test conditions for the first step of differentiation were conducted over a three-day period, feeding daily by aspirating and replacing the medium from each well with fresh test medium. Concentrated supernatants of the ACTN peptides were evaluated for protein concentration using a DuoSet ELISA kit for human activin A (R&D Systems; Cat #DY338), as previously described in Example 11. On the first day of assay, ACTN peptides were diluted to a final concentration of 100 ng/ml in RPMI 1640 medium (Invitrogen; Cat #: 22400) with 2% Albumin Bovine Fraction V, Fatty Acid Free (FAF BSA) (MP Biomedicals, Inc; Cat #152401), 8 ng/ml bFGF, and 20 ng/ml Wnt3a (R&D Systems; Cat #1324-WN/CF) and then added to the assay wells. On the second and third day of assay, ACTN peptides were diluted into RPMI 1640 medium supplemented with 2% fatty acid free BSA and 8 ng/ml bFGF, without any Wnt3a and then added to the assay wells. A positive control sample included a commercial source of activin A (PeproTech; Cat #12 0-14) diluted in culture medium with growth factors as indicated. At the conclusion of three days culture, cells from some wells were harvested for analysis by flow cytometry to evaluate levels of CXCR4, a marker of definitive endoderm formation. […]

[2] = test system: Human Embryonic Stem Cells (H1 hESC line); test: RT-PCR of pancreatic differentiation markers at conclusion of step four of differentiation (Example 12); assay type: cell-based; conditions: end of step four; relative to commercial activin A or ACTN1
Description: Step 4 of the differentiation protocol was carried out over three days. Cells were fed daily by aspirating the medium from each well and replacing with a fresh aliquot (0.5 ml) of DMEM-high glucose supplemented with 1% B27, 100 ng/ml Noggin, 100 ng/ml Netrin-4 (R&D Systems; Cat #), 1 μM DAPT, and 1 μM Alk 5 inhibitor (Axxora; Cat #ALX-270-445). At the conclusion of the fourth step of differentiation, cells from some wells were harvested for analysis by RT-PCR to measure markers of differentiation.
RT-PCR Analysis: RNA samples were purified by binding to a silica-gel membrane (Rneasy Mini Kit, Qiagen, CA) in the presence of an ethanol-containing, high-salt buffer followed by washing to remove contaminants. The RNA was further purified using a TURBO DNA-free kit (Ambion, INC), and high-quality RNA was then eluted in water. Yield and purity were assessed by A260 and A280 readings on a spectrophotometer. […]
Unless otherwise stated, all reagents were purchased from Applied Biosystems. […] For each primer/probe set, a Ct value was determined as the cycle number at which the fluorescence intensity reached a specific value in the middle of the exponential region of amplification. Relative gene expression levels were calculated using the comparative Ct method. […] The normalized amount of target was calculated as 2-ΔCt, assuming amplification to be 100% efficiency. […]

B1: ACTN1: wild type Activin A mature protein (SwissProt/UniProt: P08476), SEQ ID 2, expressed from applicant's construct (protein)
chain: GLECDGKVNICCKKQFFVSFKDIGWNDWIIAPSGYHANYCEGECPSHIAGTSGSSLSFHSTVINHYRMRGHSPFANLKSCCVPTKLRPMSMLYYDDGQNIIKKDIQNMIVEECGCS
**Q.** With B1 as the molecule, how does the “CXCR4 expression (FACS)” value [1] read?
**A.** equivalent and robust CXCR4 expression

B2: ACTN4: activin A variant peptide, SEQ ID 5 (protein)
chain: GLECDGKVNLCCKKQLFVSFKDIGWNDWIIAPSGYHANHCSGLCPSHIAGTSGSSLSFHSTVINHYRMRGHSPFSDMGACCVPTKLRPMSMLYYDDGQNIIKKDIQNMIVEECGCS
**Q.** B2 was tested. Which “CXCR4 expression (FACS)” value [1] did it give?
**A.** equivalent or comparable

**Q.** And the “expression of downstream pancreatic differentiation markers (RT-PCR)” value [2]?
**A.** comparable expression

B3: ACTN48: activin A variant peptide, SEQ ID 49 (protein)
chain: GLECDGKVNLCCKKQNFVSFKDIGWNDWIIAPSGYHANECSGLCPSHIAGTSGSSLSFHSTVINHYRMRGHSPFANMGACCIPTKLRPMSMLYYDDGQNIIKKDIQNMIVEECGCS
**Q.** B3 was tested. Which “CXCR4 expression (FACS)” value [1] did it give?
**A.** equivalent or comparable

**Q.** And the “expression of downstream pancreatic differentiation markers (RT-PCR)” value [2]?
**A.** comparable expression

— patent US20110091971A1, “Differentiation of Pluripotent Stem Cells” (priority 2008, published 2011)
